From PMC9482650, “Quantitative fragmentomics allow affinity mapping of interactomes” (Nature Communications, 2022)

Assays:
Test in all cases: holdup assay
Design in all cases: key: below the threshold = too weak to quantify, mostly under pKd 3.1 to 4
[1] = biological target: LDB3, O75112
[2] = biological target: T1, NHERF3_3, Q5T2W1
T1 sequence (Q5T2W1 238-333, limits assumed, looked up): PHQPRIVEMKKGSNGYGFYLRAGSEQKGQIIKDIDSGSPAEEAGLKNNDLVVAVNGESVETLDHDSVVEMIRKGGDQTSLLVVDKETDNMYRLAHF

[3] = biological target: Inadl_2, Q8NI35
Inadl_2, Q8NI35, sequence (Q8NI35 238-335): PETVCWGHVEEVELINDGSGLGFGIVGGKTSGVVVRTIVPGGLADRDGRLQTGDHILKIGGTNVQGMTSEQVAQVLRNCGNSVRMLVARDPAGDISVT

[4] = biological target: T2, DFNB31_3, Q9P202
T2 sequence (Q9P202 811-907, limits assumed, looked up): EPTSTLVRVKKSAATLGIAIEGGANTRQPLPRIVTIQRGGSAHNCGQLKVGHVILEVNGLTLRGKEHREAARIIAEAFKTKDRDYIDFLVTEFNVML

[5] = biological target: GRASP, Q7Z6J2
GRASP, Q7Z6J2, sequence (Q7Z6J2 96-193): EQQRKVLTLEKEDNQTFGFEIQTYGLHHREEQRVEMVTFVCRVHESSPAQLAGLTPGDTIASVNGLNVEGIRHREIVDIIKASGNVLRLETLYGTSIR

[6] = biological target: T3, MPP2, Q14168
T3 sequence (Q14168 180-250, limits assumed, looked up): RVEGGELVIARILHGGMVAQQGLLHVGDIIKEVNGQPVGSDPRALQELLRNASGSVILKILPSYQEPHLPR

[7] = biological target: GRID2IP_1, A4D2P6
GRID2IP_1, A4D2P6, sequence (A4D2P6 1-87): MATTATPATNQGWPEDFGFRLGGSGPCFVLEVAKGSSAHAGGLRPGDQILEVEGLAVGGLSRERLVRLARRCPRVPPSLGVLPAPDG

[8] = biological target: DLG2_2, Q15700
DLG2_2, Q15700, sequence (Q15700 189-283): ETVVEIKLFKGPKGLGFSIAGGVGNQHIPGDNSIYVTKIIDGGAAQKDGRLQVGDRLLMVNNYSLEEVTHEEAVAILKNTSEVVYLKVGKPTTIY

[9] = biological target: T4, TIAM2, Q8IVF5
T4 sequence (Q8IVF5 885-986, limits assumed, looked up): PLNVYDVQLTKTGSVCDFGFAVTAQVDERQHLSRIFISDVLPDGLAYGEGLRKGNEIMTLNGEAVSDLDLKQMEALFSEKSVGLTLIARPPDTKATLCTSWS

[10] = biological target: T5, APBA2_2, Q99767
T5 sequence (Q99767 654-744, limits assumed, looked up): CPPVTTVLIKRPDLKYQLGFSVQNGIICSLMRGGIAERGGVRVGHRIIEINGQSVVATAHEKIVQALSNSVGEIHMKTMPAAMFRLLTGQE

[11] = biological target: ARHGEF12, Q9NZN5-2
ARHGEF12, Q9NZN5-2, sequence (Q9NZN5 other isoform, or with tags, fused parts or gaps): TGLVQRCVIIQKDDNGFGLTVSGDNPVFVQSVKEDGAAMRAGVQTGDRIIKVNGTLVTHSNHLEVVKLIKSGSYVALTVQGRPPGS

[12] = biological target: DLG1_2, Q12959
[13] = biological target: T6, ARHGAP21, Q5T5U3
T6 sequence (Q5T5U3 45-169, limits assumed, looked up): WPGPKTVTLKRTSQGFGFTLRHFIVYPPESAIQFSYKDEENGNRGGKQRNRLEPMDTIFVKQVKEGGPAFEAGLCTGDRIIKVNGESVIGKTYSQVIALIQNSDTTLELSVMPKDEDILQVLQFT

[14] = biological target: MAGI2_2, Q86UL8
MAGI2_2, Q86UL8, sequence (Q86UL8 410-522): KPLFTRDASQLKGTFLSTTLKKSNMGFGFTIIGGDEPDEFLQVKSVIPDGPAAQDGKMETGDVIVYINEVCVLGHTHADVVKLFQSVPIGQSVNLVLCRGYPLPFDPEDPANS

[15] = biological target: DLG1_1, Q12959
[16] = biological target: T7, LIN7B, Q9HAP6
T7 sequence (Q9HAP6 88-185, limits assumed, looked up): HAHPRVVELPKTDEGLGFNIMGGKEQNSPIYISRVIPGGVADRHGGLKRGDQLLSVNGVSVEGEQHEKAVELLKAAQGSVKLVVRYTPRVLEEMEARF

[17] = biological target: NHERF4_1, Q86UT5-2
NHERF4_1, Q86UT5-2, sequence (Q86UT5 other isoform, or with tags, fused parts or gaps): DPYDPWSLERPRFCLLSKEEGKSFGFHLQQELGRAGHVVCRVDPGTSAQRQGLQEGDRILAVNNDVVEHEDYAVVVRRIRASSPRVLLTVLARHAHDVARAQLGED

[18] = biological target: Inadl_8, Q8NI35
Inadl_8, Q8NI35, sequence (Q8NI35 1425-1530): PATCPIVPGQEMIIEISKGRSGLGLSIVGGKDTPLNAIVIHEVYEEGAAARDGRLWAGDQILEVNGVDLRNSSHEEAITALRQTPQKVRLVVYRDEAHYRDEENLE

[19] = biological target: DLG5_1, Q8TDM6
DLG5_1, Q8TDM6, sequence (Q8TDM6 617-713): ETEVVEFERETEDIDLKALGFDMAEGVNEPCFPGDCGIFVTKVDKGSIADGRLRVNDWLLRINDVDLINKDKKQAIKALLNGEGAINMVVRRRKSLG

[20] = biological target: T8, RADIL, Q96JH8
T8 sequence (Q96JH8 971-1071, limits assumed, looked up): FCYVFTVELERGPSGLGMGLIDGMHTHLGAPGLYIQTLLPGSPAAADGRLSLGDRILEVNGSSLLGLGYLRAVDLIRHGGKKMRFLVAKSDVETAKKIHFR

[21] = biological target: PDLIM1, O00151
PDLIM1, O00151, sequence (O00151 1-87): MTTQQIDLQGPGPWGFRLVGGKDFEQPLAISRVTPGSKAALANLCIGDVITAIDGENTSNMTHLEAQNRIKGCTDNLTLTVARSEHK

[22] = biological target: Inadl_10, Q8NI35
Inadl_10, Q8NI35, sequence (Q8NI35 1673-1763): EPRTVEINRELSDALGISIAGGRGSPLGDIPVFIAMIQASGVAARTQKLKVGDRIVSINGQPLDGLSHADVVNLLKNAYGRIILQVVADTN

[23] = biological target: T9, RHPN1, Q8TCX5
T9 sequence (Q8TCX5 508-602, limits assumed, looked up): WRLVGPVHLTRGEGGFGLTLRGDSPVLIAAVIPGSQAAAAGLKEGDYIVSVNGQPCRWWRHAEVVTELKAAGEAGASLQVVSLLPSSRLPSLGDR

[24] = biological target: Inadl_6, Q8NI35
Inadl_6, Q8NI35, sequence (Q8NI35 1058-1167): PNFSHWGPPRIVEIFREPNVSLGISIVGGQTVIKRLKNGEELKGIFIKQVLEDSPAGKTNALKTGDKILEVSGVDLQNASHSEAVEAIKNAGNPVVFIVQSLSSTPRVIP

[25] = biological target: T10, NHERF3_1, Q5T2W1
T10 sequence (Q5T2W1 4-100, limits assumed, looked up): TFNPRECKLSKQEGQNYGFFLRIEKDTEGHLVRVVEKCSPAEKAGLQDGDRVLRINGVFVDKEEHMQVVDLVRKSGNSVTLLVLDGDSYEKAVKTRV

[26] = biological target: PDZRN4_1, Q6ZMN7
PDZRN4_1, Q6ZMN7, sequence (Q6ZMN7 213-318): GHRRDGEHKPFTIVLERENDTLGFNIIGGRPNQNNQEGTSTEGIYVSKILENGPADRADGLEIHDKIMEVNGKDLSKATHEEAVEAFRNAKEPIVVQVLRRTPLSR

[27] = biological target: GIPC2, Q8TF65
GIPC2, Q8TF65, sequence (Q8TF65 112-203): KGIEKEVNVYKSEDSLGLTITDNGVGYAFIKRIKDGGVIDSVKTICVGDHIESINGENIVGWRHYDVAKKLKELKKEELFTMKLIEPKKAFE

[28] = plain residues with an end cap or a label only (N-terminal biotin on a linker: ttds)
[29] = plain residues with an end cap or a label only (N-terminal biotin on a linker: ahx)

LDB3, O75112, sequence (O75112 1-94): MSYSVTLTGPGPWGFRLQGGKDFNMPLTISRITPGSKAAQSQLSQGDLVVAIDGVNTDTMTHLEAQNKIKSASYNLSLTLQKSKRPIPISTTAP

Binder: DEDQHTQITKV [PTEN, P60484]
- pKd [1, 28]: below the threshold
- pKd [2, 28]: 3.67
- pKd [3, 28]: below the threshold
- pKd [4, 28]: 3.71
- pKd [5, 28]: 4.72
- pKd [6, 28]: below the threshold
- pKd [7, 28]: below the threshold
- pKd [8, 28]: 3.55
- pKd [9, 28]: below the threshold
- pKd [10, 28]: below the threshold
- pKd [11, 28]: 4.2
- pKd [12, 28]: 3.97
- pKd [13, 28]: below the threshold
- pKd [14, 28]: below the threshold
- pKd [15, 28]: 3.64
- pKd [16, 28]: 3.49
- pKd [17, 28]: 3.51
- pKd [18, 28]: 4.46
- pKd [19, 28]: below the threshold
- pKd [20, 28]: 3.91
- pKd [21, 28]: below the threshold
- pKd [22, 28]: 3.58
- pKd [23, 28]: 4.36
- pKd [24, 28]: 3.82
- pKd [25, 28]: 4.03
- pKd [26, 28]: 3.62

Binder: EDEDEQVSAV [RAPGEF2, Q9Y4G8]
- pKd [1, 29]: below the threshold
- pKd [2, 29]: below the threshold
- pKd [3, 29]: below the threshold
- pKd [4, 29]: below the threshold
- pKd [5, 29]: 4.86
- pKd [6, 29]: below the threshold
- pKd [7, 29]: below the threshold
- pKd [27, 29]: 3.81
- pKd [8, 29]: below the threshold
- pKd [9, 29]: below the threshold
- pKd [10, 29]: below the threshold
- pKd [11, 29]: 3.71
- pKd [12, 29]: 3.85
- pKd [13, 29]: below the threshold
- pKd [14, 29]: below the threshold
- pKd [15, 29]: below the threshold
- pKd [16, 29]: below the threshold
- pKd [17, 29]: below the threshold
- pKd [18, 29]: 3.86
- pKd [19, 29]: below the threshold
- pKd [20, 29]: below the threshold
- pKd [21, 29]: below the threshold
- pKd [22, 29]: below the threshold
- pKd [23, 29]: 4.23
- pKd [24, 29]: 3.81
- pKd [25, 29]: below the threshold
- pKd [26, 29]: below the threshold

Binder: CLDTSRETDL [KCNA5, P22460]
- pKd [1, 28]: below the threshold
- pKd [2, 28]: below the threshold
- pKd [3, 28]: below the threshold
- pKd [4, 28]: below the threshold
- pKd [5, 28]: below the threshold
- pKd [6, 28]: below the threshold
- pKd [7, 28]: below the threshold
- pKd [27, 28]: below the threshold
- pKd [8, 28]: 4.19
- pKd [9, 28]: below the threshold
- pKd [10, 28]: below the threshold
- pKd [11, 28]: 4.32
- pKd [12, 28]: 4.79
- pKd [13, 28]: 3.78
- pKd [14, 28]: below the threshold
- pKd [15, 28]: 3.79
- pKd [16, 28]: below the threshold
- pKd [17, 28]: below the threshold
- pKd [18, 28]: below the threshold
- pKd [19, 28]: below the threshold
- pKd [20, 28]: below the threshold
- pKd [21, 28]: 4.29
- pKd [22, 28]: below the threshold
- pKd [23, 28]: 4.46
- pKd [24, 28]: 3.93
- pKd [25, 28]: 4.43
- pKd [26, 28]: 3.98

Binder: LCKSHAFSHV [PDLIM7, Q9NR12;Q9NR12-1]
- pKd [1, 29]: below the threshold
- pKd [2, 29]: below the threshold
- pKd [3, 29]: below the threshold
- pKd [4, 29]: below the threshold
- pKd [6, 29]: below the threshold
- pKd [7, 29]: below the threshold
- pKd [10, 29]: below the threshold
- pKd [13, 29]: below the threshold
- pKd [14, 29]: 4.11
- pKd [15, 29]: below the threshold
- pKd [16, 29]: below the threshold
- pKd [17, 29]: below the threshold
- pKd [18, 29]: 4.1
- pKd [19, 29]: below the threshold
- pKd [20, 29]: 3.99
- pKd [21, 29]: below the threshold
- pKd [23, 29]: 4.38
- pKd [24, 29]: below the threshold
- pKd [25, 29]: below the threshold
- pKd [26, 29]: below the threshold
